Laboratory results: US20040209808A1 (published 2004)

B1: SEQ ID NO 17 (peptide)
peptide: LEAKIWVVPAPS
notes: Selected from random M13KE phage-display libraries

What follows are binders tested against T1, HGPRBMY3 (human, UniProt Q9H1C0 1-372) (assay: cell-based phage-display panning on CHO-K1 cells transfected with HGPRBMY3; sequencing of eluted phage).
T1 construct: on CHO-NFAT/Galpha15 cells for the reporter assay; also called GPCR19; GPR92; not shown: its amino
T1 sequence (Q9H1C0 whole entry): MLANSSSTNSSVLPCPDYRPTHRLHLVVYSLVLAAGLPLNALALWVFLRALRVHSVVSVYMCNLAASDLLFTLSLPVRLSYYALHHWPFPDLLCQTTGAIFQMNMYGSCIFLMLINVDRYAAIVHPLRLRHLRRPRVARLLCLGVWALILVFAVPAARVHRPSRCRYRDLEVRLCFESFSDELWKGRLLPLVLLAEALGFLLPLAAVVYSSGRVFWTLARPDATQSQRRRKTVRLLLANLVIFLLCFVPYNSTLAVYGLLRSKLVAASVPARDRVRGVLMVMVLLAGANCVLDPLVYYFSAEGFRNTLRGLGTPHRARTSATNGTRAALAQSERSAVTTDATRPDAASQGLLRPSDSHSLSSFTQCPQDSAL
Description: On the day of panning, growth medium was discarded and cells were washed with 10 ml PBS by allowing the buffer to flow over the cells. The PBS was removed and 10 ml Tris-EDTA detaching buffer (Gibco Cat. # 13150-016; no trypsin) was added for 2 min. Plates were tapped and/or pipetted up and down to detach cells. This was done quickly to minimize the exposure of the cells to this reagent. Cells were pelleted by centrifugation at 3K, and then washed with 20 ml PBS. Cells were resuspended cells in PBS with 2% milk blocking agent plus protease inhibitor (EDTA-free; Roche Cat. # 1 873 580). For each library, cell suspensions of ˜500 μl were used. Cells were blocked for 30-60 min with gentle rocking at room temperature. The integrin-coated wells were washed 3×in PBST, then blocked with 2% BSA in PBS for 30 min or more. To preadsorb against integrin, input phage was added to the integrin-coated wells, and incubated for 30 min or more.
At this stage, the blocked parental cells were divided into the required number of aliquots (500 μl aliquot/library). The phage supernatants were added from the integrin-preadsorption step. Preadsorption against the parental cells was carried out for 30 min or more with gentle rocking. The blocked transfected cells were divided into the required number of aliquots (500 μl aliquot per library). The transfected cells were pelleted, and the supernatant was discarded. The phage supernatants from the two preadsorption steps were added, and cells were incubated with gentle rocking for 2 h or more. Cells were washed 6-8× with PBST at 5 min intervals. Each wash was performed by gently pipetting the cells up and down, and cells were centrifuged at low speed. To recover binding phage from the washed cell pellets, 500 μl 6M urea, pH 3.0 was added for 15 min. This was neutralized with 10 μl 2 M Tris (not adjusted for pH). The phage in the eluate were titered and arnplified by standard procedures (NEB protocol for PhD phage libraries). In some cases, the eluate was viscous due to the presence of chromosomal DNA.
Standard procedures were used. Phage in eluates were infected into E. coli host strain ER2738 (New England Biolabs) for all M13KE-based libraries, and cells were plated for plaques. Colonies were grown in liquid medium and analyzed by standard sequencing procedures.
KLWDITAPLPKP [SEQ ID NO 41]: binds.
B1: binds.
NAKLWQIPAIPH [SEQ ID NO 42]: binds.
VYSKVWLLPAGQ [SEQ ID NO 19]: binds.
KLWIPHTSQPFL [SEQ ID NO 40]: binds.
TGQTKIWYPHST [SEQ ID NO 18]: binds.
NAKVWTVPSKPP [SEQ ID NO 21]: binds.
KVWSLDISAPQH [SEQ ID NO 23]: binds.
KLWVPQNRPELV [SEQ ID NO 43]: binds.
TTPHRVWNLPLEAQQ [SEQ ID NO 46]: binds.
HLKVWEVRSPGP [SEQ ID NO 20]: binds.
KLWILADNFTNR [SEQ ID NO 35]: binds.
INSPHELKKLWLLPP [SEQ ID NO 36]: binds.
FPHKLWVLPVKT [SEQ ID NO 37]: binds.
KLWTIPSNDYPP [SEQ ID NO 38]: binds.
TSTPHRVWQLPV [SEQ ID NO 45]: binds.
KVWIPTSTWLQT [SEQ ID NO 22]: binds.
KVVDSNHKVWLVSQT [SEQ ID NO 25]: binds.
NHDNTKKVWILA [SEQ ID NO 26]: binds.
ADVLHATPSEKVWLL [SEQ ID NO 24]: binds.
